Measurements: the supplement of paper PMC10724198
± gives the standard deviation of the averaged measurements.

System: Saccharomyces cerevisiae
Assay: protein stability index of tFT-peptide fusion (C-terminal peptide) (PSI (0-1 scale)); higher = more stable (slower turnover)
Details: temperature: 30 C
Method: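 MPS profiling in S. cerevisiae of the yeast C-terminome library: the last 12 aa of each annotated ORF are fused to the C-terminus of a sfGFP-mCherry timer, after a GGGS linker. Cells are FACS-sorted into 8 mCherry/sfGFP bins and deep-sequenced. PSI runs from 0 (unstable) to 1 (stable); wild type and das1Δ backgrounds, two technical replicates each.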

[1] = genetic background: das1 deletion

Sequence | protein stability index [1] | protein stability index (genetic background: wild type)
TKYKTVTVTAKT [YMR244W C-terminal 12 aa] | 0.652 ± 0.014 | 0.71 ± 0.034
TNGITTERHKKK [NTG2 C-terminal 12 aa] | 0.714 ± 0.0084 | 0.668 ± 0.028
TNTVPATSASSK [RGC1 C-terminal 12 aa] | 0.68862 ± 0.00043 | 0.701 ± 0.04
TNWGQHKTVQNT [PPE1 C-terminal 12 aa] | 0.698 ± 0.024 | 0.713 ± 0.019
TNYEVTDTYTNS [SOM1 C-terminal 12 aa] | 0.7107 ± 0.0011 | 0.712 ± 0.017
TPRLYTDRSRDF [RPB2 C-terminal 12 aa] | 0.743 ± 0.0033 | 0.713 ± 0.013
TPSEDDDGAVEI [LSM3 C-terminal 12 aa] | 0.688 ± 0.0068 | 0.749 ± 0.062
TPTDSTPTKKDI [LAC1 C-terminal 12 aa] | 0.6941 ± 0.0027 | 0.725 ± 0.019
TRKKGGRRGRRL [RPS14A C-terminal 12 aa] | 0.711 ± 0.011 | 0.676 ± 0.011
TRMSSPPPSTSS [SET2 C-terminal 12 aa] | 0.695 ± 0.023 | 0.6896 ± 0.0047
TSDQKNKRTQFS [RPB9 C-terminal 12 aa] | 0.6969 ± 0.0066 | 0.667 ± 0.07
TVFETLTLHSAN [JSN1 C-terminal 12 aa] | 0.725 ± 0.024 | 0.68218 ± 0.00033
TVGYGILKVMGF [PHO91 C-terminal 12 aa] | 0.659 ± 0.012 | 0.656 ± 0.009
TVSLPSRYSRYN [ALR2 C-terminal 12 aa] | 0.6976 ± 0.0014 | 0.684 ± 0.033
VAKKRLSSRSKP [YNL162W-A C-terminal 12 aa] | 0.715 ± 0.05 | 0.658 ± 0.02
VARYKMVSKRIW [EMP65 C-terminal 12 aa] | 0.717 ± 0.011 | 0.654 ± 0.018

Sequence | protein stability index [1] | protein stability index (genetic background: wild type)
VDIPVDVKKLQI [BUL2 C-terminal 12 aa] | 0.723 ± 0.035 | 0.696 ± 0.018
VDMKWGSFPIFQ [YPR1 C-terminal 12 aa] | 0.7256 ± 0.0028 | 0.7 ± 0.027
VDSEGQIRYAKE [YCR087C-A C-terminal 12 aa] | 0.673 ± 0.028 | 0.6705 ± 0.0015
VEIPTVESTKSG [RNA14 C-terminal 12 aa] | 0.696 ± 0.021 | 0.7544 ± 0.0014
VEPVYLCASLSL [YCR047W-A C-terminal 12 aa] | 0.666 ± 0.027 | 0.6733 ± 0.00078
VFEVFSRMDMLL [VPS74 C-terminal 12 aa] | 0.7149 ± 0.0058 | 0.773 ± 0.027
VFGGCATTWIVL [ATS1 C-terminal 12 aa] | 0.6971 ± 0.0038 | 0.692 ± 0.0096
VFLELKKAQRWA [API2 C-terminal 12 aa] | 0.703 ± 0.019 | 0.686 ± 0.011
VFNDIFRLNYSA [NTF2 C-terminal 12 aa] | 0.7108 ± 0.0032 | 0.504 ± 0.0084
VFPETDSIFEPV [RAF1 C-terminal 12 aa] | 0.733 ± 0.022 | 0.715 ± 0.0081
VGKKLETFKKTN [WBP1 C-terminal 12 aa] | 0.717 ± 0.0088 | 0.48 ± 0.019
VGRHSSRLMCPG [YBR126W-B C-terminal 12 aa] | 0.6932 ± 0.0053 | 0.689 ± 0.022
VHAENTTLREIL [CDC50 C-terminal 12 aa] | 0.706 ± 0.036 | 0.7076 ± 0.0047
VHLEKKKDEDKK [UBX7 C-terminal 12 aa] | 0.67376 ± 4e-05 | 0.668 ± 0.021
VIIVPIAVHFSR [SNC1 C-terminal 12 aa] | 0.561 ± 0.024 | 0.581 ± 0.0095
